Measurements published in PMC3807668, “Structure of the CRISPR Interference Complex CSM Reveals Key Similarities with Cascade” (Molecular Cell, 2013).
Where “and” joins values, the source holds several entries; their conditions need not be identical. Equal entries are not always repeated.

T1: Sso1428 with C-terminal tandem tag (Strep and 10x His) (S. solfataricus, UniProt Q97YA4 1-558, methylation (residues not given))
T1 chain: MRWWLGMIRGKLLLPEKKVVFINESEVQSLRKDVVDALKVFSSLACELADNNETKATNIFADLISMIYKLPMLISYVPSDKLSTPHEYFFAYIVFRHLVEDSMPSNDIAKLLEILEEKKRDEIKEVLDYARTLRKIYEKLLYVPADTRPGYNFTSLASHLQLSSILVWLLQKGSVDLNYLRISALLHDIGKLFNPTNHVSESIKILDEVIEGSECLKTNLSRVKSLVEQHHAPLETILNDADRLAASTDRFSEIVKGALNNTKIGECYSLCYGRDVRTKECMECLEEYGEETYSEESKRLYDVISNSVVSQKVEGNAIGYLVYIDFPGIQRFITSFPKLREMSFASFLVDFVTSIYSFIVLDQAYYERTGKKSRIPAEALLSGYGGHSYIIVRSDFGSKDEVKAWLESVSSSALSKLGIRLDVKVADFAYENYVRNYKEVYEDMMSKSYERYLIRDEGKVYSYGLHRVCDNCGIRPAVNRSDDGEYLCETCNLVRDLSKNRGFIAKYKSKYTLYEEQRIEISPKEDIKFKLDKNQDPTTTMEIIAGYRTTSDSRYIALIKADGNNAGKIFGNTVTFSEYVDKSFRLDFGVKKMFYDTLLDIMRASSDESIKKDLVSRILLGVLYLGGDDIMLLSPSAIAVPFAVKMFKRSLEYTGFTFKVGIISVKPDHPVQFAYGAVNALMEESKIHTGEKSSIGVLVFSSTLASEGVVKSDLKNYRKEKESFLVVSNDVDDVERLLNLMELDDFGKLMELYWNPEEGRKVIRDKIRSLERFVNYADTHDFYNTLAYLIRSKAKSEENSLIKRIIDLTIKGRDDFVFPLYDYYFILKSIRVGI

B1: Sso1427 (natural protein, UniProt Q97YA5 1-275, looked up)
chain: MQRSPIRRSNYTPRNEKGLEGVIELQLNVVSDYLHVGSGKYDVEVMRSVSDVKRLVEDYLSGGNKRIPNNVDQYFSMVAFLMVRNKDNVVIPGSTIKGMVRSRLELSVPGSCYIVTGHSTSSSAVYKRIFNPDPNRGSDRFDVNKFPQVCPVCDLLGNMGLASRVSLSDFVMTSGKVDYVNVKGRDYEVVTKGSIFAGKVLYKSLKPVEIGMLLYGFGFVKDCNGSKVMLLGRFKFSDKRFGRVKFSLKTPIADCNKLVSDFVKQFNPRYINEEW
modifications: methylation (residues not given)
notes: Sso1427, RAMP subunit of the CSM complex of S. solfataricus; its mass lies within 70 Da of that of Sso1426; also called RAMP subunit; Csm3 paralog; source: endogenous, S. solfataricus PH1-16; co-purified with the tagged subunit (HisTrap, monoQ, gel filtration)
B2: Sso1424 (natural protein, UniProt Q97YA8 16-139, looked up)
chain: SSQDLLDIATRIAISAIKPKPKSNKPEPYVDSSTINSLLSFLQSRRNVNELLLYIMRQAGRDEIDEETGKLLLASLKDRELKDAVNLLGYVKWVYDTLTGLKVNYNNVKGVKTFKELVNILSKV
modifications: acetylated N-terminal Ser-16; seven methylated lysines (positions not given)
notes: Sso1424, small subunit (probably Csm2) of the CSM complex of S. solfataricus; three copies in the CSM complex; also called small subunit; Csm2; source: endogenous, S. solfataricus PH1-16; co-purified with the tagged subunit (HisTrap, monoQ, gel filtration)
B3: Sso1426 (natural protein, UniProt Q97YA6 1-281, looked up)
chain: MVLMVNYTFIDKRVIKRTTMIEGDVETVSPLKIGGGKDNFDPSSLAKDSILKDVEGRPIIPGSSWKGIFRSTGERILRLRNIEVCSGIGKDYCLNNNRKERDFNSALKENVDQALEIFWDYTCLNCKVFGTMSVIGAVRFLDSLPISYSLNTRSMIAISRTEGAVARRALVTVEYVDVGSKFSFKMMGYNLPNYAIGYLITIMKNIHDGFTQVGGHKSRGFGFVKFGKVKFTDLGEKRIGDEDIQVKDVGDLVEGNGDEFFGRMKPFMEAFNNAKIPYPKK
modifications: methylation (residues not given)
notes: Sso1426, RAMP subunit assigned to the Csm3 (Cas7-like) family, CSM complex of S. solfataricus; four copies in the CSM complex; its mass lies within 70 Da of that of Sso1427; also called Csm3; Cas7 family RAMP subunit; source: endogenous, S. solfataricus PH1-16; co-purified with the tagged subunit (HisTrap, monoQ, gel filtration)
B4: Sso1430 (natural protein, UniProt Q97YA2 1-206, looked up)
chain: MIPIKVSMRNLSSLTIAGGSTISSIDIPLNPLGVPPSTIKGTMRTAVHNLLPNGYTSCGEVEPESIREAHKNGVCDVCKLFGYPDSLTGCFTIDVSKTDYRTSYITRVSIDDKTQRAKEGSLFTQQIILPNSDISFTVYYNCNDERLFKLLLYSILDLRYWRLGRNTMIDVKVNNVEEICKSVKCDEEINGILNQLSRYLWEAENK
modifications: methylation (residues not given)
notes: Sso1430, subunit of the CSM complex of S. solfataricus; also called RAMP subunit; Csm3 paralog; source: endogenous, S. solfataricus PH1-16; co-purified with the tagged subunit (HisTrap, monoQ, gel filtration)
B5: Sso1432 (natural protein, UniProt Q97YA0 1-252, looked up)
chain: MVIQVFRLNFRLRTGFRVGGGQEVGDNVIRQLRIGVEGVMIPASSWKGMFRRVSEIVLNSEDHFEEHSKKEVDTRTINALLKSDEKFRRIAISKVGKEVITQNGINVDKLDSESLSDLRRIYNEYNCPIERLYGSNYFAGGITISDSVIPNASIMERTHVTIERKSKKASEKHLFSEEIIDAEKIEVKVIVRNEFELWKNSLKLLREIGYFIGGSKSRGIGYIVLDEKESEYAVINNFSETPKFSELKRYLS
modifications: methylation (residues not given)
notes: Sso1432, RAMP subunit of the CSM complex of S. solfataricus; also called RAMP subunit; Csm3 paralog; source: endogenous, S. solfataricus PH1-16; co-purified with the tagged subunit (HisTrap, monoQ, gel filtration)
B6: Sso1425 (natural protein, UniProt Q97YA7 1-250, looked up)
chain: MKMSCMDLDVITTVVKIEGKLRNETLLRVGKGKTQDFAEATDNPIIKYRDRPLIPGSSLKGAFRSLVESYTKSLNDSKYYVCDLDDNSCVSCEEKKKDNGIVEGRYCIPCILFGFKDLASRVYILDAIAEKYSISQRTMVAINRVFGGQMPGHLYTLDYVDPGSEFSFMMMIYNLNLIEGEKDWKAKSVEALKFLLATLVREGIFVGARKSVGYGLIKLVDAKVSLYKAPDHLVSPVIVKKLEEVIGTNG
modifications: methylation; phosphorylation (residues not given)
notes: Sso1425, RAMP subunit of the CSM complex of S. solfataricus; also called RAMP subunit; Csm3 paralog; source: endogenous, S. solfataricus PH1-16; co-purified with the tagged subunit (HisTrap, monoQ, gel filtration)
B7: Sso1431 (untagged, in the complex purified by tagged Sso1428) (natural protein, UniProt Q97YA1 1-304, looked up)
chain: MILIKLKVKGYITTQMRRIRNYYFSITNYIPSTTLRGAILAEYYNQTGKIDENFYVSPAYPIKTAPAHYFSPAKERKGDEFIEVKRILEKKEKEFEANKPIEEIMKLEIDGKHPKPKIGSLITYEGETDKENKYREFSSKSIIQMHVAIDKTSISSYKGMLFAYEYKEFDEMWAIASDSEVIDTVKRIKIGRGKNRGNKVVDVEKVREVSLDQSKGLLYCLSPCIGSLFGKTFFKAKYIIGDKSIYSGWFTVDSFSGQKPVFETLREGSLVYVESFSNEKSLMPAGLNFMLRISDLSSILNKVS
modifications: methylation; phosphorylation (residues not given)
notes: Csm4 (Sso1431, Cas5 subfamily RAMP protein) of the CSM complex of S. solfataricus; also called Csm4; Cas5-like RAMP subunit; source: endogenous, S. solfataricus PH1-16; co-purified with tagged Sso1428 (HisTrap, monoQ, gel filtration)

target: B7; assay: native MS; purified CSM complex disassembled in 200 mM ammonium acetate with 5%-20% acetic acid (pH 3.9, 3.5, 3.2); subcomplexes of 357 to 120 kDa assigned by tandem MS; interaction map deduced from the disassembly pattern with the help of the EM shape; conditions: both partners purified

Binder | binding result
B1 | binds

target: B4; assay: as above; conditions: both partners purified

Binder | binding result
B2 | binds

target: B1; assay: cross-linking; purified CSM complex (1 ug/ul) with a 1:1 mixture of d4 and d0 BS3, 1 hr at room temperature; cross-linked peptides found by MS (MassMatrix) and validated by hand; conditions: both partners purified

Binder | binding result
B2 | binds

Target: the molecule itself
Assay: native MS + other: quantitative proteomics with isotope-labelled peptides; exhaustive mass search on the intact mass 427,611 Da; copy numbers of Sso1424, Sso1425 and Sso1426 allowed to vary by one, the others fixed by Table 1; one hit within a mass error of 3%
Conditions: not given

Binder | stoichiometry N
B2 | 3 copies
B3 | 4 copies

Target: T1, Sso1428 with C-terminal tandem tag …
Assay: as above
Conditions: both partners purified

Binder | stoichiometry N
B1 | 1 subunit:Sso1428
B4 | 1 subunit:Sso1428
B5 | 1 subunit:Sso1428
B6 | 1 subunit:Sso1428
B7 | 1 subunit:Sso1428
B2 | 3 subunit:Sso1428
B3 | 4 subunit:Sso1428

Target: T1, Sso1428 with C-terminal tandem tag …
Assay: quantitative proteomics with isotope-labelled dipeptides (LC-MS); purified CSM complex spiked with synthetic (15N,13C)-labelled dipeptides joining a peptide of each subunit to the reference peptide of Sso1428, trypsin digest, LTQ-Orbitrap; ratio of peak areas
Conditions: both partners purified

Binder | stoichiometry N
B1 | 0.8 subunit:Sso1428 and 0.79 subunit:Sso1428 and 0.83 subunit:Sso1428 and 0.81 subunit:Sso1428
B5 | 0.92 subunit:Sso1428 and 0.91 subunit:Sso1428 and 0.96 subunit:Sso1428 and 0.93 subunit:Sso1428
B6 | 1.45 subunit:Sso1428 and 1.35 subunit:Sso1428 and 1.56 subunit:Sso1428
B7 | 0.67 subunit:Sso1428 and 0.65 subunit:Sso1428 and 0.7 subunit:Sso1428
B2 | 3.62 subunit:Sso1428 and 3.51 subunit:Sso1428 and 4.03 subunit:Sso1428 and 3.72 subunit:Sso1428
B3 | 4.85 subunit:Sso1428 and 4.81 subunit:Sso1428 and 4.73 subunit:Sso1428 and 4.8 subunit:Sso1428
